Our source for the Kd values is patent US20260217797A1 (Takeda / Millennium, published 2026).

As a reminder, the Kd is the equilibrium constant for the complex coming apart.

One assay deals with SARS-CoV-2 RBD-mFc (SARS-CoV-2, UniProt P0DTC2 319-541). Description: Octet BLI, IgG, avid. (In general: BLI is a label-free optical method that tracks binding on a fibre tip over time.)
Assay [1] has as its target SARS-CoV-2 Variant B.1.17 N501Y S1-His (SARS-CoV-2, UniProt P0DTC2 16-685). Description: Octet BLI, IgG, monovalent.

B1: A-3 (antibody, V domains shown)
VH: EVQLLESGPGLVKPSETLSLTCTVSGGSINSRSYYWGWIRQPPGKGLEWIGSIYYSGSTYYNPSLKSRVTISVDTSKNQFSLKLSSVIAADTAVYFCARLEQWELPGGWFDPWGQGTLVTVSS
VL: NFMLTQPHSVSESPGKTVTISCTRSSGSIASNYVQWYQQRPGSAPTTVIYEDNQRPSGVPDRFSGSIDISSNSASLTISGLKTEDEADYSCQSSDSSNVVFGGGTKLTVL
Take B1: the Kd with SARS-CoV-2 RBD-mFc is 0.141 nM.

B2: A-14 (antibody, V domains shown)
VH: EVQLVESGGGVVQPGRSLRLSCAASGFTFSTYGMHWVRQAPGKGLEWVAVIWYDGSNKYYADSVKGRFTISRDNSKNTLYLQMNSLRAEDTAVYYCARSVDGDYLEYFQHWGQGTLVTVSS
VL: QPVLTQPRSVSGSPGQSVTISCTGTSSDVGGYNYVSWYQQHPGKAPKLMIYDVSKRPSGVPDRFSGSKSGNTASLTISGLQAEDEADYYCCSYAGGYTNYVFGTGTKLTVL
In the case of B2, binding with SARS-CoV-2 RBD-mFc was characterised by a dissociation constant (Kd) of 0.158 nM.

B3: A-5 (antibody, V domains shown)
VH: QVQLVESGGGLIQPGESLRLSCAASEFIVSRNYMSWVRQAPGKGLEWVSVIYSGGNTYYADSVKGRFTISRDNSKNTLYLQMNSLRAEDTAVYYCARDLRGPGCFDFWGQGTTVTVSS
VL: DIQVTQSPSSLSASVGDRVTITCQASQDISNFLNWYQQKPGKAPKLLIYDASNLETGVPSRFSASGSGTEFTFTISSLQPEDIATYYCQQYDNLRVTFGGGTKLEIK
For B3, binding with SARS-CoV-2 RBD-mFc was characterised by a dissociation constant (Kd) of 0.179 nM.

B4: A-23 (antibody, V domains shown)
VH: EVQLVESGGGLVQPGRSLRLSCAASGFTFDDYAMHWVRQAPGKGLEWVSGISWNSGTIGYADSVKGRFIISRDNAKNSLYLQMNSLRGEDMALYYCGKDRKREDPSLGGMDVWGQGTTVTVSS
VL: SYVLTQPPSVSVAPGQTARITCGGNNIGSKSVHWYQQKPGQAPVLVVYDDTDRPSGIPERFSGSNSGNTATLTISRVEAGDEADYYCQVWDSSSDHYVFGTGTKVTVL
As for B4, binding in assay [1] was characterised by a dissociation constant (Kd) of 1.2 nM.

B5: A-23.1 (antibody, V domains shown)
VH: EVQLVESGGGLVQPGRSLRLSCAASGFTIDDYAMHWVRQAPGKGLEWVSGISWNGGTIGYADSVKGRFIISRDNAKNSLYLQMNSLRGEDMALYYCGKDRKREDPSLGGMDVWGQGTTVTVSS
VL: SYVLTQPPSVSVAPGQTARITCLGNNIGSKSVHWYQQKPGQAPVLVVYDDTDRPSGIPERFSGSNSGNTATLTISRVEAGDEADYYCQVWDSESDHYVFGTGTKVTVL
For B5, in assay [1], the Kd is 0.512 nM.

B6: A-12 (antibody, V domains shown)
VH: EVQLLESGGGLVQPGGSLRLSCAVSGLTVSSNYMSWVRQAPGKGLEWVSLIYSGGSTYYADSVKGRFTISRDNSKNTLYLQMNSLRAEDTAVYYCARGELGIPYGMDVWGQGTTVTVSS
VL: QSVLTQPPSVSAAPGQKVTISCSGGSSNVGDNFVSWYQQLPGTAPKLLIYDNNRRPSGIPDRFSGSKSGTSATLGITGLQTGDEADYYCGTWDSSLSAGVFGGGTKVTVL
B6 yielded a Kd with SARS-CoV-2 RBD-mFc of 0.151 nM.

B7: A-19 (antibody, V domains shown)
VH: QVQLVQSGAEVKKPGESLKISCKGSGYSFTSYWIAWVRQMPGKGLEWMGIIYPGDSDTSYSPSFQGQVTISADKSISTAYLQWSSLKASDTAMYYCARGPNKYNWFDTWGQGTLVTVSS
VL: not shown
In the assay with SARS-CoV-2 RBD-mFc, B7 came in with a Kd of 0.129 nM.

B8: A-15 (antibody, V domains shown)
VH: QVQLVQSGAEVKKPGASVKVSCKASGYTSSSYYMHWVRQAPGQGPEWMGIINPGGTSTSYAQKFQGRVTMTRDTSTSTVYMELSSLRSEDTAVYYCAIGYCSTTSCRWGDAFDIWGQGTMVTVSS
VL: DIQVTQSPSSLSASVGDRVTITCRASQSISSYLNWYQQKPEKAPNLLIYAASSLQSGVPSRFSGSGSGTDFTLTISSLQPEDFATYYCQQSSTTPPTFGQGTKVEIK
In turn, B8 had a Kd with SARS-CoV-2 RBD-mFc of 0.212 nM.

B9: A-11 (antibody, V domains shown)
VH: EVQLVESGAEVKKPGSSVMVSCKASGGTFSRYAISWVRQAPGQGLEWMGGIIPVFGIVHYAQKFQGRVTITADKSTSTAYMELSSLRSEDTAAYYCARDRQQQPSPYYYHGMDVWGQGTTVTVSS
VL: DIRLTQSPSSLSASVGDRVTITCQASQDISNYLNWYQQKPGKAPKLLIYDASNLETGVPTRFSGSGSGTDFTFTISSLQPEDIATYYCQQYDNLPLFGGGTKVEIK
Molecule B9 registered a Kd with SARS-CoV-2 RBD-mFc of 0.173 nM.

B10: A-8 (antibody, V domains shown)
VH: EVQLLESGGGLVQPGGSLRLSCAASGFTFSSYAMSWVRQAPGKGLEWVSAISGSGNSTSYADSVKGRFTLSRDNSKNTLYLQMNSLRAEDTAIYYCAKGLGTRSFNWGAFDYWGQGTLVTVSS
VL: DIRVTQSPSSLSASVGDRVTITCRASQGISYSLAWYQQKPGKAPKLLLYAASNLESGVPSRFSGSGSGTDYTLTVSSLQPEDFATYYCQQYYSTPWTFGQGTKVEIK
On to B10, for which binding with SARS-CoV-2 RBD-mFc was put at a Kd of 0.106 nM.

B11: A-10 (antibody, V domains shown)
VH: QVQLVQSGGGVVQPGRSLRLSCAASGFTFSSYGMHWVRQAPGKGLEWVAVISYDGSNKYYTDSVKGRFTISRDNSKNTLYLQMNSLRAEDTAVYYCAKDLPREVYYDILTGYDNPYYYYGMDVWGQGTTVTVSS
VL: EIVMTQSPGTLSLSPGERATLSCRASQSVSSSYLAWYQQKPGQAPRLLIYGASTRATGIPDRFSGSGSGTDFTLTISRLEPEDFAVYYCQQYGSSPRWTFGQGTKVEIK
In the assay with SARS-CoV-2 RBD-mFc, B11 gave a Kd of 0.0931 nM.

B12: A-1 (antibody, V domains shown)
VH: EVQLVESGGGVVQPGGSLRLSCAASGFAFSTYWMHWVRQAPGKGLVWVSRINGDGSGTNYADSVKGRFTISRDNAKSTLYLQMNSLRTEDTAVYYCTRTAGRGAYDFGRFDPWGQGTLVTVSS
VL: DIVLTQTPLSLPVTPGEPASISCRSSQSLLHSNGYNYLDWYLQKAGQSPQLLVFLGSNRASGVPDRFSGSASGTDFTLKISRVEAEDVGVYYCMQALQIPITFGQGTRLEIK
B12: binding in the assay with SARS-CoV-2 RBD-mFc was characterised by a dissociation constant (Kd) of 0.089 nM.

B13: A-7 (antibody, V domains shown)
VH: EVQLVESGAEVRKPGASVKVSCKASGYTFTFYYIHWVRQAPGQGLEWMGWISPISGATNYAQTFQGRVTMTRDTSITTAYMELSSLTSDDTAVYYCAREKYYDSSGSSDYWGQGTLVTVSS
VL: QPVLTQPPSVSAAPGQNVTIFCSGSSSNIGNNYVSWYQQLPGPAPKLLIYENNKRPSGIPDRFSGSKSGTSATLGITGLQTGDEADYYCGTWESSLSAPRVFGSGTKLTVL
As to B13, in the assay with SARS-CoV-2 RBD-mFc, the affinity, expressed as Kd, was 0.0941 nM.

B14: A-13 (antibody, V domains shown)
VH: QVQLVQSGAEVKKPGASVKVSCKASGYTFTDYYMHWVRQAPGQGLEWMGWINPNSGGTNSAQKFQGRVTMTRDTSINTAYMELSRLRSDDTAVYFCARDSHLAMVRGDFEYWGQGTLVTVSS
VL: QSVLTQPASVSGSPGQSITISCTGTSSDVESYNVVSWYQQHPGKAPKLMIYEVSKRPSGVSHRFSGSKSGNTASLTISGLQAEDESDYYCCSYAGNSTWVFGGGTKLTVL
In the assay with SARS-CoV-2 RBD-mFc, B14 yielded a Kd of 0.0959 nM.

B15: A-2 (antibody, V domains shown)
VH: EVQLVESGGGLIQPGGSLRLSCAASGFTVSSNYMSWVRQAPGKGLEWVSIIYSGGSTYYADSVKGRFTISRDNSKNTLYLQMNSLRAEDTAVYYCARAPSGEYGDPIYYWGQGTLVTVSS
VL: QSVLTQPPSASASLGASVKLTCTLSSGHSTYTIAWHQQQPEKGPRYLMKLNSDGSHSKGDGIPDRFSGSSSGAERYLTISSLQSEDEADYYCQTWGTGNHWVFGGGTKLTVL
For B15, in the assay with SARS-CoV-2 RBD-mFc, the affinity, expressed as Kd, was 0.125 nM.

B16: A-4 (antibody, V domains shown)
VH: EVQLVESGGGLIQPGGSLTLSCAASGFTVSSNYMNWVRQAPGKGLEWVSVIYSGGSTYYADSVKGRFTISRDNSKNTLYLQMNSLRAEDTAVYYCAREVYSYFDYWGQGTLVTVSS
VL: DIQLTQSPSFLSASVGDRVTITCRASQGISSYLAWYQQKPGKAPKLLIYAASTLQSGVPSRFSGSGSGTEFTLTISRLQPEDLATYYCQQLNSYPPHTFGQGAKLEIK
Turning to B16, in the assay with SARS-CoV-2 RBD-mFc, the Kd turned out to be 0.663 nM.
